From patent US20220213203A1 (MacroGenics, published 2022)

How the values were obtained:
[1] = molecular target: CD123 as arrayed by human cells (human, UniProt P26951 19-378); test: cell-based or functional assay
[2] = molecular target: Cynomolgus CD3ε/δ (cynomolgus monkey) (UniProt Q95LI5); test: kinetic binding analysis; method not given
Human CD3ε/δ (human) = Human CD3ε/δ (human) (UniProt P07766); test: kinetic binding analysis; method not given
Chain of Human CD3ε/δ (human) (P07766 23-126, stated change not applied, chain 1 of 2): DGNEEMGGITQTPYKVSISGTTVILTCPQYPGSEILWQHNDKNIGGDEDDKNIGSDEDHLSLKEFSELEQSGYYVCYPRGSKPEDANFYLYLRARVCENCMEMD
Chain of Human CD3ε/δ (human) (P04234 22-105, stated change not applied, chain 2 of 2, further chain): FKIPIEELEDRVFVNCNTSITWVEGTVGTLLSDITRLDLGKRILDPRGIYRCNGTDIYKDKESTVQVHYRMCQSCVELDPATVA

Chain of Cynomolgus CD3ε/δ (cynomolgus monkey) (Q95LI5 22-117, stated change not applied, chain 1 of 2): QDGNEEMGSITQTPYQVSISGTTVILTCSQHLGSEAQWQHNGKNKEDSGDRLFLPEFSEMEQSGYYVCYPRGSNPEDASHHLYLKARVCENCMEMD
Chain of Cynomolgus CD3ε/δ (cynomolgus monkey) (Q95LI8 22-105, stated change not applied, chain 2 of 2, further chain): as the sequence (P04234 22-105, stated change not applied, chain 2 of 2, further chain) above, with I5V, N15K, I20V, S32T, D33N, I34N, T64A, S74N, V83L counted along it
Chain of CD123 as arrayed by human cells (P26951 19-378): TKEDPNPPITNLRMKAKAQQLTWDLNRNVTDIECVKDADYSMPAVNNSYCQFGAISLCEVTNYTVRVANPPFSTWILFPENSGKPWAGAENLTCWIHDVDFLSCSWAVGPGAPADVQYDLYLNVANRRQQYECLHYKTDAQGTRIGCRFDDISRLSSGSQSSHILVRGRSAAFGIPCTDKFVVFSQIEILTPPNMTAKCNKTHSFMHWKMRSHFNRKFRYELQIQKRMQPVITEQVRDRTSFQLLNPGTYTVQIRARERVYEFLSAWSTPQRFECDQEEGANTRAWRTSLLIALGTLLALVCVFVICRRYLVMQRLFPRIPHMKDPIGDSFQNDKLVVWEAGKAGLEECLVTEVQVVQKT

B1: DART-A (bispecific antibody)
chain 1: QAVVTQEPSLTVSPGGTVTLTCRSSTGAVTTSNYANWVQQKPGQAPRGLIGGTNKRAPWTPARFSGSLLGGKAALTITGAQAEDEADYYCALWYSNLWVFGGGTKLTVLGGGGSGGGGEVQLVQSGAELKKPGASVKVSCKASGYTFTDYYMKWVRQAPGQGLEWIGDIIPSNGATFYNQKFKGRVTITVDKSTSTAYMELSSLRSEDTAVYYCARSHLLRASWFAYWGQGTLVTVSSGGCGGGEVAALEKEVAALEKEVAALEKEVAALEK
chain 2: DFVMTQSPDSLAVSLGERVTMSCKSSQSLLNSGNQKNYLTWYQQKPGQPPKLLIYWASTRESGVPDRFSGSGSGTDFTLTISSLQAEDVAVYYCQNDYSYPYTFGQGTKLEIKGGGSGGGGEVQLVESGGGLVQPGGSLRLSCAASGFTFSTYAMNWVRQAPGKGLEWVGRIRSKYNNYATYYADSVKDRFTISRDDSKNSLYLQMNSLKTEDTAVYYCVRHGNFGNSYVSWFAYWGQGTLVTVSSGGCGGGKVAALKEKVAALKEKVAALKEKVAALKE
With B1 the “EC50 of redirected killing, Kasumi-3 target cells, E:T = 10:1” value [1] was 0.01 ng/mL, the “EC50 of redirected killing, Molm13 target cells, E:T = 10:1” value [1] was 0.18 ng/mL and the “EC50 of redirected killing, RS4-11 target cells, E:T = 10:1” value [1] was 0.5 ng/mL. The “EC50 of redirected killing, TF-1 target cells, E:T = 10:1” value [1] was 0.46 ng/mL, the “EC50 of redirected killing, THP-1 target cells, E:T = 10:1” value [1] was 0.24 ng/mL and the Kd [2] was 9.2 nM. For the same binder, the koff [2] was 0.005 s⁻¹, the kon [2] was 550000 M⁻¹ s⁻¹ and the Kd (Human CD3ε/δ (human)) was 9 nM. The koff (Human CD3ε/δ (human)) was 0.005 s⁻¹ and the kon (Human CD3ε/δ (human)) was 570000 M⁻¹ s⁻¹.
